Assay results as given in patent publication US20050170334A1.

Biological target: M2 peptide (extracellular 23-amino-acid M2 peptide) (influenza A virus)
Test: ELISA, peptide coated, antibody 10 µg/ml

## mouse anti-M2 antibody 14C2
  ELISA (OD450): 1.97 OD450
